Results published in paper PMC2504713 (Journal of Leukocyte Biology, 2008).

Experiments:
[1] = biological target: Recombinant rat Nrp1, conjugated to an Fc fragment of human IgG1 (Nrp1-Fc) (rat) (UniProt Q9QWJ9); assay: ELISA
[2] = biological target: T1, LAP C-terminal peptide QSSRHRR; assay: ELISA
T1 peptide: Ac-QSSRHRR-OH

In the case of Active (mature) TGF-β1 (ligand), the IC50 [1] is reported as 0.89 nM and the Kd [1] is reported as 0.04 nM.

“LAP-TGF-β1 (the latent form of TGF-β1) (from UniProt P01137 30-278) (complex)” was tested, and the EC50 [1] was 0.338 nM.

B1: Recombinant rat Nrp1, conjugated to an Fc fragment of human IgG1 (Nrp1-Fc) (Fc fusion, UniProt Q9QWJ9 22-855, looked up)
chain: FRSDKCGGTIKIENPGYLTSPGYPHSYHPSEKCEWLIQAPEPYQRIMINFNPHFDLEDRDCKYDYVEVIDGENEGGRLWGKFCGKIAPSPVVSSGPFLFIKFVSDYETHGAGFSIRYEIFKRGPECSQNYTAPTGVIKSPGFPEKYPNSLECTYIIFAPKMSEIILEFESFDLEQDSNPPGGVFCRYDRLEIWDGFPEVGPHIGRYCGQKTPGRIRSSSGILSMVFYTDSAIAKEGFSANYSVLQSSISEDFKCMEALGMESGEIHSDQITASSQYGTNWSVERSRLNYPENGWTPGEDSYREWIQVDLGLLRFVTAVGTQGAISKETKKKYYVKTYRVDISSNGEDWITLKEGNKAIIFQGNTNPTDVVFGVFPKPLITRFVRIKPASWETGISMRFEVYGCKITDYPCSGMLGMVSGLISDSQITASNQGDRNWMPENIRLVTSRTGWALPPSPHPYINEWLQVDLGDEKIVRGVIIQGGKHRENKVFMRKFKIAYSNNGSDWKMIMDDSKRKAKSFEGNNNYDTPELRAFTPLSTRFIRIYPERATHSGLGLRMELLGCEVEVPTAGPTTPNGNPVDECDDDQANCHSGTGDDFQLTGGTTVLATEKPTIIDSTIQSEFPTYGFNCEFGWGSHKTFCHWEHDSHAQLRWRVLTSKTGPIQDHTGDGNFIYSQADENQKGKVARLVSPVVYSQSSAHCMTFWYHMSGSHVGTLRVKLHYQKPEEYDQLVWMVVGHQGDHWKEGRVLLHKSLKLYQVIFEGEIGKGNLGGIAVDDISINNHIPQEDCAKPTDLDKKNTEIKIDETGSTPGYEEGKGDKNISRKPGNVLKTLDP
Molecule B1 has an EC50 [2] of 4.18 ± 0.99 nM.
